Like-named read-outs stand apart in the source and are kept apart here.
T1: MICA*008 on MEL-JUSO cells (human, UniProt Q29983 24-317)
T1 chain: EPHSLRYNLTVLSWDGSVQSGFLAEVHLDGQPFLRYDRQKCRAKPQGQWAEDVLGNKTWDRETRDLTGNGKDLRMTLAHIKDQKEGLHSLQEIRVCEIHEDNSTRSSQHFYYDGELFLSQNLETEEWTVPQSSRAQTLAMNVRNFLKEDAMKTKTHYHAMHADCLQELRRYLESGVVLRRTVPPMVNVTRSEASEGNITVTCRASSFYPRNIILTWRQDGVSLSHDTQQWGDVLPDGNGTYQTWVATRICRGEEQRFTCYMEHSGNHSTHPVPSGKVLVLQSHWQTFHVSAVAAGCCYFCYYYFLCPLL

T2: MICA002.His (human MICA*002 alpha 3 domain, His tagged) (human)
T2 construct: also called huMICA*002 alpha 3-his
T2 chain: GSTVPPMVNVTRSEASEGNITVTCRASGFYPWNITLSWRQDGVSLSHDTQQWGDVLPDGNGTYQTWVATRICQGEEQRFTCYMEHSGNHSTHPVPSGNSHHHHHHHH

T3: MICA004.His (human MICA*004 alpha 3 domain, His tagged) (human)
T3 construct: also called huMICA*004 alpha 3-his
T3 chain: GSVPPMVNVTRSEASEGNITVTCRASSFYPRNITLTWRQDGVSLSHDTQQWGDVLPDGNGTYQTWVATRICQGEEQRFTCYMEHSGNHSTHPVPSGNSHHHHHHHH

T4: MICB005.His (human MICB*005 alpha 3 domain, His tagged) (human)
T4 construct: also called huMICB*005 alpha 3-his
T4 chain: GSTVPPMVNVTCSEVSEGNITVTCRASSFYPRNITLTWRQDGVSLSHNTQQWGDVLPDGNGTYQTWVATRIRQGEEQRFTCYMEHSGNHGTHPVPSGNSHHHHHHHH

T5: MICA008.His (human MICA*008 alpha 3 domain, His tagged) (human)
T5 construct: Also used for FPOP (expressed in CHO); also called huMICA*008 alpha 3-his; MICA*008 a3
T5 chain: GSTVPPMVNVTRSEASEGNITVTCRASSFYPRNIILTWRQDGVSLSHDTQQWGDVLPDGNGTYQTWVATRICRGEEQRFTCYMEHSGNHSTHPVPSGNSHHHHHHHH

T6: MICA.008.a3.T204-S297.I236T.mIgG2a.Glyco13 (human; mouse, UniProt Q29983 204-297, engineered N-linked glycosylation site created by I236T)
T6 construct: not shown: murine IgG2a Fc
T6 chain: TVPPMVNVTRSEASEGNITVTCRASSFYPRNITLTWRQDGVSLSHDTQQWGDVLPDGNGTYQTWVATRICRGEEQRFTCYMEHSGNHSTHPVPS

T7: MICA.008.a3.T204-S297.H248N.mIgG2a.Glyco15 (human; mouse, UniProt Q29983 204-297, engineered N-linked glycosylation site H248N)
T7 construct: not shown: murine IgG2a Fc
T7 chain: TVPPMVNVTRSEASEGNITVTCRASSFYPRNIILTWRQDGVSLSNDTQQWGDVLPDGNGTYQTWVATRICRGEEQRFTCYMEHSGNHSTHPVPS

T8: MICA.008.a3.T204-S297.C-terminal insert of N298.G299.S300.mIgG2a.Glyco17 (human; mouse, UniProt Q29983 204-297, engineered N-linked glycosylation site at inserted N298)
T8 construct: not shown: murine IgG2a Fc
T8 chain: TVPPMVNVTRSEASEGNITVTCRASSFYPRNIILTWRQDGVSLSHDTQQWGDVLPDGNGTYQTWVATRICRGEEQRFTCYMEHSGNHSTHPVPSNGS

T9: MICA.008.a3.R202-S297.R202N mIgG2a.Glyco11 (human; mouse, UniProt Q29983 203-297, engineered N-linked glycosylation site R202N)
T9 construct: not shown: murine IgG2a Fc
T9 chain: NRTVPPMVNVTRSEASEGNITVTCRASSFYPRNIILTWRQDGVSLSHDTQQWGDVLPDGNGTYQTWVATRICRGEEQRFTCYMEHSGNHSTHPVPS

T10: MICA.008.a3.T204-S297.E215N.mIgG2a.Glyco12 (human; mouse, UniProt Q29983 204-297, engineered N-linked glycosylation site E215N)
T10 construct: not shown: murine IgG2a Fc
T10 chain: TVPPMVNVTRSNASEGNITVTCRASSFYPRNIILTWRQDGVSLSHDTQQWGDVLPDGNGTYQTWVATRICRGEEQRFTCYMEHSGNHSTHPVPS

T11: MICB*005 on HCC1534 cells (human, UniProt Q29980 23-383)
T11 sequence (looked up): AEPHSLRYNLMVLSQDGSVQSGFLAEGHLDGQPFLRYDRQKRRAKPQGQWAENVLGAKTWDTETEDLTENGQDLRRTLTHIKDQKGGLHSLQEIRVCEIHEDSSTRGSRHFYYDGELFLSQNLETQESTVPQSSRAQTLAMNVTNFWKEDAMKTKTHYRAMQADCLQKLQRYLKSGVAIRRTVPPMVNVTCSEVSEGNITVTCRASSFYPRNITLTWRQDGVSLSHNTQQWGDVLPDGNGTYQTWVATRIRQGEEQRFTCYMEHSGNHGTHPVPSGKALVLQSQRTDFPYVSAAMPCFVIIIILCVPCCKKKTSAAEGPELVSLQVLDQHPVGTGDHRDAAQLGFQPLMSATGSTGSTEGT

T12: MICA.008.a3.T204-S297.G243N.mIgG2a.Glyco14 (human; mouse, UniProt Q29983 204-297, engineered N-linked glycosylation site G243N)
T12 construct: not shown: murine IgG2a Fc
T12 chain: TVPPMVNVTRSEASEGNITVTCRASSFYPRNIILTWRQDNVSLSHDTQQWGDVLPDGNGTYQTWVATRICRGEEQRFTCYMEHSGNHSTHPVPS

T13: MICA.008.a3.T204-S297.R279N.mIgG2a.Glyco16 (human; mouse, UniProt Q29983 204-297, engineered N-linked glycosylation site R279N)
T13 construct: not shown: murine IgG2a Fc
T13 chain: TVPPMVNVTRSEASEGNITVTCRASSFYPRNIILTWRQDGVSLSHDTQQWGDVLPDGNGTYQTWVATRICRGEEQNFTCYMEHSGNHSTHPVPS


Legend:
[1] = molecular target: T14, MICA*004 on HCC1534 cells (human, UniProt Q29983 24-383); experiment: cell-based or functional assay
[2] = molecular target: T1, MICA*008 on MEL-JUSO cells; experiment: cell-based or functional assay
[3] = molecular target: T2, MICA002.His (human MICA*002 alpha 3 …); experiment: SPR, antibody captured;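 note: SPR with antibody held by surface-bound anti-Fc while His-tagged alpha three domains flow over, Kd derived by fitting a one-to-one binding model to sensograms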
Description: (§1) The binding kinetics of the anti-MICA/B antibodies were measured using surface plasmon resonance (SPR) on a Biacore T200 instrument (GE Healthcare). Anti-murine Fc or anti-human Fc (GE Healthcare) was immobilized on a CM5 sensor chip via amine-based coupling using manufacturer provided protocol. Anti-MICA/B antibody was captured by the anti- Fc and the MICA/B alleles were passed over. Antibody binding was measured to human MICA 002, 004, 008 and MICB 005 alpha 3 domains (His tagged, in-house). Sensograms for binding of MICA/B were recorded using an injection time of 2-3 minutes with a flow rate of 30 ml/min, at a temperature of 25° C., and with a running buffer of 10mM HEPES, pH 7.4, 150 mM NaCl, and 0.005% Tween 20. After injection, disassociation of the alpha 3 domain from the antibody was monitored for 10 minutes in running buffer. The surface was regenerated between binding cycles with a 60 ul injection of 10 mM Glycine HCl pH 1.7. […] The data was analyzed using a 1:1 binding model. Sensograms of MICA alleles binding to captured anti-MICA antibody were used to calculate the dissociation constant (Kd).

[4] = molecular target: T3, MICA004.His (human MICA*004 alpha 3 …); experiment: SPR, antibody captured;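 note: SPR with antibody held by surface-bound anti-Fc while His-tagged alpha three domains flow over, Kd derived by fitting a one-to-one binding model to sensograms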
Description: as §1

[5] = molecular target: T4, MICB005.His (human MICB*005 alpha 3 …); experiment: SPR, antibody captured;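 note: SPR with antibody held by surface-bound anti-Fc while His-tagged alpha three domains flow over, Kd derived by fitting a one-to-one binding model to sensograms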
Description: as §1

[6] = molecular target: T5, MICA008.His (human MICA*008 alpha 3 …); experiment: SPR, antibody captured;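 note: SPR with antibody held by surface-bound anti-Fc while His-tagged alpha three domains flow over, Kd derived by fitting a one-to-one binding model to sensograms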
Description: as §1

[7] = molecular target: T6, MICA.008.a3.T204-S297.I236T.mIgG2a.Glyco …; experiment: ELISA, coated variant;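 note: ELISA with plates coated at 2 ug/ml with MICA*008 alpha 3 glycosylation variants as murine IgG2a Fc fusions, antibody binding detected by HRP anti-human IgG Fc and TMB absorbance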
Description: (§2) Hybridoma derived clones binding to all four MICA/B alleles alpha 3 domains were tested by ELISA for binding to the MICA*008 alpha 3 glycosylation variants fused to murine IgG2a Fc fusion. Nunc maxisorp plates were coated with 2 ug/ml of glycosylation variants as previously described. Cloned and recombinantly expressed hybridoma monoclonal antibodies were added to the plates after blocking with a 1X PBS buffer containing 0.5% BSA and 0.05% Tween 20. After incubation, plates were washed multiple times with wash buffer (1X PBS containing 0.05% Tween 20) and secondary antibody (goat anti-human IgG Fc conjugated to HRP) was added. Plates were then washed multiple times with wash buffer again before adding either BioFX TMB Microwell 1 Component Peroxidase or tetramethylbenzidine (TMB) substrate (KPL; Gaithersburg, Md.). After several minutes of incubation, the reaction was stopped with BioFX stop solution or 1 N solution of HCl, respectively. Plates were read on a Spectra MAX 340 plate reader at either 630 or 450 nm respectively (Molecular Devices; Sunnyvale, Calif.).

[8] = molecular target: T7, MICA.008.a3.T204-S297.H248N.mIgG2a.Glyco …; experiment: ELISA, coated variant;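 note: ELISA with plates coated at 2 ug/ml with MICA*008 alpha 3 glycosylation variants as murine IgG2a Fc fusions, antibody binding detected by HRP anti-human IgG Fc and TMB absorbance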
Description: as §2

[9] = molecular target: T8, MICA.008.a3.T204-S297.C-terminal insert …; experiment: ELISA, coated variant;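 note: ELISA with plates coated at 2 ug/ml with MICA*008 alpha 3 glycosylation variants as murine IgG2a Fc fusions, antibody binding detected by HRP anti-human IgG Fc and TMB absorbance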
Description: as §2

[10] = molecular target: T9, MICA.008.a3.R202-S297.R202N …; experiment: ELISA, coated variant;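 note: ELISA with plates coated at 2 ug/ml with MICA*008 alpha 3 glycosylation variants as murine IgG2a Fc fusions, antibody binding detected by HRP anti-human IgG Fc and TMB absorbance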
Description: as §2

[11] = molecular target: T10, MICA.008.a3.T204-S297.E215N.mIgG2a.Glyco …; experiment: ELISA, coated variant
Description: as §2

[12] = molecular target: T11, MICB*005 on HCC1534 cells; experiment: cell-based or functional assay
[13] = molecular target: T5, MICA008.His (human MICA*008 alpha 3 …); experiment: SPR (Biacore), MICA*008 alpha-3 domain
[14] = molecular target: T12, MICA.008.a3.T204-S297.G243N.mIgG2a.Glyco …; experiment: ELISA, coated variant
Description: as §2

[15] = molecular target: T13, MICA.008.a3.T204-S297.R279N.mIgG2a.Glyco …; experiment: ELISA, coated variant
Description: as §2

[16] = molecular target: T11, MICB*005 on HCC1534 cells; experiment: cell-based or functional assay; remark: listed apart in the source
[17] = molecular target: T14, MICA*004 on HCC1534 cells; experiment: cell-based or functional assay; remark: listed apart in the source
[18] = molecular target: MICA*002 on cells (PANC-1; B16-MICA002) (human, UniProt Q29983 24-383); experiment: cell-based or functional assay
[19] = molecular target: T1, MICA*008 on MEL-JUSO cells; experiment: cell-based or functional assay

Binder	% max inhibition of shedding [1]	EC50 of shedding inhibition [1]	% max inhibition of shedding [2]	Kd [3]	Kd [4]	Kd [5]	Kd [6]	binding result [7]	binding result [8]	binding result [9]	binding result [10]	binding result [11]	% max inhibition of shedding [12]	EC50 of shedding inhibition [12]	EC50 of shedding inhibition [2]	Kd [13]	other results
7D4.6 (antibody, V domains shown, Mouse hybridoma antibody; constant regions differ by assay) VH: DVQLQESGPGLVKPSQSLSLTCTVTGYSITSDYAWNWIRQFPRNKLEWMGYINYSGTTNYNPSLKSRISITRDTSKNQFFLQLISVTTEDTATYYCSYYRYDGAWFPYWGQGTLVTVSA VL: DIQMTQSPASLSASVGETVTITCRASGNIHNYLAWYQQKQGKSPQLLVYNAIMLADGVPSRFSASGSGTQYSLKINSLQPEDFGSYYCQHFWSFPLTFGAGTKVEIK	63%	0.185 µg/mL	26%	3.5 nM	8.9 nM	20 nM	10 nM	binds	binds	binds	binds	binds					
32D2 (antibody, V domains shown, Mouse hybridoma antibody; constant regions differ by assay) VH: DVHLVESGGGLVQPGGSRKLSCAASGFTFNTFGMNWVRQAPEKGLEWVAYINSGSNTIYYADTVKGRFTISRDNPKNTLFLQMTSLRSEDTAMYYCTRWEPVTGGFSYWGQGTLVTVSA VL: QIVLTQSPAFKSSSLGERVTMTCTASSSISSSYLHWYQQKPGSSPKLWIYTTSNLASGVPARFSGSGSGTSYSLTISTMEAEDAATYYCHQHHRSPFTFGSGTKVEIK	76%	0.0592 µg/mL	71%	3.18 nM	2.85 nM	2.82 nM	1.94 nM	binds	binds	binds	binds	binds	54%	0.0781 µg/mL	0.0303 µg/mL	4 nM	
18G3 (antibody, V domains shown, Mouse variable domains; constant regions differ by assay) VH: VQLQESGPGLVKPSQSLSLTCNVTGYSITGDYAWNWIRQFPGNKLEWIGYIGYTGSTTYNPSLKSRVSITRDTSKNQFFLQLNSVTPEDTATYYCARWRNWAMDYWGLGTSVTVSS VL: DIQMTQTPSSLSASLGDRVTISCRANQDISHYLNWYQQKPDGAVKLLIYYTSRIHSGVPSRFSGSGSGTDYSLTIANLEQEDVATYFCQQGNTPPTTFGGGTKVEIK	74%	0.012 µg/mL	75%	10.4 nM	4.03 nM	6.18 nM	2.03 nM	binds	binds	binds	binds	binds	48%	0.0124 µg/mL	0.0191 µg/mL	2.6 nM	binding result [15]: binds

Now those with a lower Kd [3], led by results:

% max inhibition of shedding [1]	EC50 of shedding inhibition [1]	% max inhibition of shedding [2]	Kd [3]	Kd [4]	Kd [5]	Kd [6]	binding result [7]	binding result [8]	binding result [9]	binding result [10]	binding result [11]	% max inhibition of shedding [12]	EC50 of shedding inhibition [12]	EC50 of shedding inhibition [2]	Kd [13]	Binder	other results
69%	0.123 µg/mL	70%	1.76 nM	1.06 nM	1.05 nM	0.77 nM	binds	binds	binds	binds	binds	51%	0.0169 µg/mL	0.0285 µg/mL	3.8 nM	20G11 (antibody, V domains shown, Mouse hybridoma antibody; constant regions differ by assay) VH: DVQLVESGGGLVQPGGSRKLSCAASGFTFSTFGIHWVRQAPEKGLEWVAYISYDSRTIYYADTVKGRFTISRDNPKNTLFLQMTSLRSEDTAMYYCARWAYEGGVNYFDNWGQGTTLTVSS VL: QIVLTQSPAIMSASLGERVTMTCTATSGVSSSYLHWYQQKPGSSPKLWIYSSSNLASGVPARFSGSGSGTSYSLTIGSMEAEDAATYYCHQFHRSPLTFGTGTKVEIK	binding result [14]: binds
86%	0.0485 µg/mL	74%	3.05 nM	1.22 nM	3.28 nM	1.02 nM	binds	binds	binds	binds	binds	59%	0.0736 µg/mL	0.0165 µg/mL		15F11 (antibody, V domains shown, Mouse variable domains; constant regions differ by assay) VH: EIQLQQSGPELVKPGASVRVSCKPSGYAFTSNNIYWVKQSRRKSLEWIGYIDPYIGRIIYNQQFKDKATLTVDKSSSTAYMHLNSLTSEDSAVYYCSRSGERSNFDYWGQGTTLTVSS VL: EIVLTQSPTAMAASPGEKITITCSASSSISSNYLHWYQQKPGFSPKLLIYRTSNLASGVPARFSGSGSGTSYSLTIGPMEAEDVATYYCQQGGSLPLTFGAGTKVEIK	EC50 of shedding inhibition [16]: 0.102 µg/mL; Max % Inhibition of shedding [16]: 60%; EC50 of shedding inhibition [17]: 0.0375 µg/mL; Max % Inhibition of shedding [17]: 64%; EC50 of shedding inhibition [18]: 0.0752 µg/mL; Max % Inhibition of shedding [18]: 54%; EC50 of shedding inhibition [19]: 0.0255 µg/mL; Max % Inhibition of shedding [19]: 73%

Reference: patent US20200055939A1 (Genentech, published 2020)
